Data as given in article PMC11711466, “Reconstitution of human DNA licensing and the structural and functional analysis of key intermediates”.

Key:
hORC1-5;hCDC6 = hORC1-5;hCDC6 (human;human, UniProt Q13415;Q13416;Q9UBD5;O43929;O43913;Q99741 1-861;1-577;1-711;1-436;1-435;1-560, |); assay: pull-down via Strep-hORC1; CDC6 retained with ORC1-5 only with DNA; 25 mM HEPES-KOH pH 7.5, 250 mM KGlu, 1 mM DTT, 4 mM MgOAc, 0.1% Triton X-100, 1 mM ATP or ATPgS, 30 C; high-salt wash adds 300 mM NaCl; in-solution: HEPES-NaOH, 0.05% Triton X-100; settings: protein: recombinant;recombinant; tags: N-terminal Twin-Strep on ORC1 (removed with SUMOstar protease in some preps);GST, cleaved; copies: 1;1;1;1;1;1; blunt
hMCM2-7 = hMCM2-7 (human, UniProt P49736;P25205;P33991;P33992;Q14566;P33993 1-904;1-808;1-863;1-734;1-821;1-719); assay: negative stain EM, in-solution loading; double hexamers; loaded by ORC1-5, ORC6, CDC6, CDT1deltaN, ATP; more than without ORC6; 25 mM HEPES-KOH pH 7.5, 250 mM KGlu, 1 mM DTT, 4 mM MgOAc, 0.1% Triton X-100, 1 mM ATP or ATPgS, 30 C; high-salt wash adds 300 mM NaCl; in-solution: HEPES-NaOH, 0.05% Triton X-100; settings: protein: recombinant; tags: N-terminal Twin-Strep MCM2; N-terminal 8xHis MCM4; chain copies: 2;2;2;2;2;2; blunt

Row | Binder | binding result (hORC1-5;hCDC6) | binding result (hMCM2-7)
1 | 90 bp ARS1 (dsDNA) DNA 1: GTTATTTTACAGATTTTATGTTTAGATCTTTTATGCTTGCTTTTCAAAAGGCCTGCAGGCAAGTGCACAAACAATACTTAAATAAATACTA DNA 2: TAGTATTTATTTAAGTATTGTTTGTGCACTTGCCTGCAGGCCTTTTGAAAAGCAAGCATAAAAGATCTAAACATAAAATCTGTAAAATAAC | binds | 
2 | 158 bp lamin B2 (dsDNA) DNA 1: GCCTGCCGCGCATGCGCACGAGGCACCCGGCGCGTCTATACAGCGTGTTGCCGCCGGGGCGGAGCCCGGTCGCATCACGTGACGAAGAGTCAGCTTGTGCAACAGCGTCGGAGGCTCACTAGAAAAAAAAGGGCAGGGTCCCATGCATCGCCTGGGTC DNA 2: GACCCAGGCGATGCATGGGACCCTGCCCTTTTTTTTCTAGTGAGCCTCCGACGCTGTTGCACAAGCTGACTCTTCGTCACGTGATGCGACCGGGCTCCGCCCCGGCGGCAACACGCTGTATAGACGCGCCGGGTGCCTCGTGCGCATGCGCGGCAGGC |  | binds
